Reference: article PMC3926839, “Evaluation of Zinc (II) chelators for inhibiting p53-mediated apoptosis”

Biological target: FLAG-p53 (UniProt P04637 1-393)
Experiment: EMSA; BPA (Zn(II) chelator) preincubated; no inhibition; FLAG-p53 12.5 nM; 10 mM Tris-HCl pH 7.4, 2.5 mM DTT, 0.05% NP-40; 10 min preincubation with chelator at 37 °C, then 3 h with probe at 37 °C; electrophoresis at
Settings: protein: recombinant; tags: FLAG; chain copies: 4; label: FITC; blunt (only the sense strand is printed; it is self-complementary)

FLAG-p53, sequence (P04637 whole entry): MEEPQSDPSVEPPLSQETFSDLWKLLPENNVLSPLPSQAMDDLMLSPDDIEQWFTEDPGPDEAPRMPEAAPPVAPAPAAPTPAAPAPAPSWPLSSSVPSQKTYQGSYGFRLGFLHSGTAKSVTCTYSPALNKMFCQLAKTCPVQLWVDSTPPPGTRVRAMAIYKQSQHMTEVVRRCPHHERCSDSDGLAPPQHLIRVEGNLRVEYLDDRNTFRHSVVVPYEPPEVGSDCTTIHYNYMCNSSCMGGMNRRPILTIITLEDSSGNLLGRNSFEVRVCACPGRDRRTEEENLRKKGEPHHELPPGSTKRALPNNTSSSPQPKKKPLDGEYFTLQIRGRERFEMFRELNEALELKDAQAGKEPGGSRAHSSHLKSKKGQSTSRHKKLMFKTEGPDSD

B1: p53 consensus probe (dsDNA)
DNA 1: GGACATGCCCGGGCATGTCC
DNA 2: GGACATGCCCGGGCATGTCC
B1: binds.
